Molecular target: BchNB (NB-protein of DPOR) from Rhodobacter sphaeroides (Rhodobacter sphaeroides)

linked-BchL (two BchL subunits expressed as a single polypeptide, joined by a flexible linker) (enzyme)
kobs of Pchlide reduction measured as Chlide formation (with BchNB, Pchlide and ATP): 0.0148 µM/min
